Results from the supplement of paper PMC10724198.
± gives the standard deviation of the averaged measurements.

Assays:
Experiment in all cases: protein stability index of tFT-peptide fusion (C-terminal peptide) (PSI (0-1 scale)); higher = more stable (slower turnover)
[1] = system: Saccharomyces cerevisiae; conditions: temperature: 30 C
Experimental: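 MPS profiling in S. cerevisiae of the yeast C-terminome library: the last 12 aa of each annotated ORF are fused to the C-terminus of a sfGFP-mCherry timer, after a GGGS linker. Cells are FACS-sorted into 8 mCherry/sfGFP bins and deep-sequenced. PSI runs from 0 (unstable) to 1 (stable); wild type and das1Δ backgrounds, two technical replicates each.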

[2] = system: Saccharomyces cerevisiae; conditions: genetic background: wild type; temperature: 30 C
[3] = system: Saccharomyces cerevisiae
Experimental: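 MPS profiling in S. cerevisiae of the tFT-X12 degron library: putative degron peptides plus stable controls, 12 aa, fused to the C-terminus of a sfGFP-mCherry timer. Cells are FACS-sorted into 8 mCherry/sfGFP bins and deep-sequenced. PSI runs from 0 (unstable) to 1 (stable). Backgrounds are wild type, das1Δ and doa10Δ at 30 °C, and wild type, das1Δ, cdc34-1 and cdc53-1 at 37 °C; 2-3 technical replicates each.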

[4] = genetic background: das1 deletion
[5] = genetic background: cdc34-1, temperature: 37 C
[6] = genetic background: cdc53-1, temperature: 37 C
[7] = genetic background: das1 deletion, temperature: 30 C
[8] = genetic background: das1 deletion, temperature: 37 C
[9] = genetic background: doa10 deletion, temperature: 30 C
[10] = genetic background: wild type, temperature: 30 C
[11] = genetic background: wild type, temperature: 37 C

Sequence | protein stability index [1, 4] | protein stability index ([1]; genetic background: wild type) | further results
AAEAKEHMQEAN [TIF34 C-terminal 12 aa] | 0.732 ± 0.062 | 0.69 ± 0.059 | –
AATAKGKGKKKK [RSM27 C-terminal 12 aa] | 0.6993 ± 0.005 | 0.64475 ± 0.00021 | –
ACELLFENNIDM [PHO81 C-terminal 12 aa] | 0.695 ± 0.015 | 0.7517 ± 0.0037 | –
ACIFNVATASIP [YGR270C-A C-terminal 12 aa] | 0.719 ± 0.036 | 0.692 ± 0.03 | –
AFGNGFNSSIRW [NRP1 C-terminal 12 aa] | 0.71 ± 0.012 | 0.68 ± 0.0089 | –
AFKGHDNSDDKA [RIB2 C-terminal 12 aa] | 0.706 ± 0.017 | 0.666 ± 0.025 | –
AFKRKKQELGVN [QDR2 C-terminal 12 aa] | 0.671 ± 0.013 | 0.697 ± 0.089 | –
AFSSNDLLTVHL [BRE1 C-terminal 12 aa] | 0.698 ± 0.036 | 0.673 ± 0.011 | –
AFTTYRAFVEPN [PMI40 C-terminal 12 aa] | 0.72 ± 0.044 | 0.677 ± 0.0095 | –
AGSRRLDFRFYH [YOL162W C-terminal 12 aa] | 0.678 ± 0.064 | 0.6607 ± 0.0057 | –
AHYNNGLQWFSD [EMC4 C-terminal 12 aa] | 0.7084 ± 0.0065 | 0.728 ± 0.014 | –
AIGNCVQDEEKL [AVL9 C-terminal 12 aa] | 0.717 ± 0.0097 | 0.679 ± 0.035 | –
AIMAVACNVIFS [AGA1 C-terminal 12 aa] | 0.292 ± 0.024 | 0.315 ± 0.005 | –
AIWKHGIVEEKI [TMA19 C-terminal 12 aa] | 0.695 ± 0.014 | 0.694 ± 0.026 | –
AKLFKEIFAYKV [COQ8 C-terminal 12 aa] | 0.664 ± 0.0097 | 0.66 ± 0.019 | –
AKSLIHLFTSNQ [NRM1 C-terminal 12 aa] | 0.694 ± 0.042 | 0.7334 ± 0.0027 | –
AKWSISHKSNTG [YIL066W-A C-terminal 12 aa] | 0.694 ± 0.0059 | 0.69 ± 0.037 | –
ALGEHYNSLHDS [OTU2 C-terminal 12 aa] | 0.7 ± 0.016 | 0.653 ± 0.0071 | –
ALKKEYEAKKKA [COA3 C-terminal 12 aa] | 0.6861 ± 0.0068 | 0.664 ± 0.0072 | –
ALPTYTMEYLDI [UTP8 C-terminal 12 aa] | 0.72 ± 0.032 | 0.698 ± 0.035 | –
ALQVLEERMVNP [YOL107W C-terminal 12 aa] | 0.7046 ± 0.003 | 0.699 ± 0.0077 | –
AMDHKFFKTKFE [CKA2 C-terminal 12 aa] | 0.68817 ± 0.00016 | 0.708 ± 0.025 | –
AMMKAEENFVKS [MAG1 C-terminal 12 aa] | 0.655 ± 0.029 | 0.6762 ± 0.00091 | –
ANEALQHILDDS [INO2 C-terminal 12 aa] | 0.6882 ± 0.0011 | 0.69 ± 0.024 | –
AQLVSLVRNQKH [YLR198C C-terminal 12 aa] | 0.717 ± 0.022 | 0.6998 ± 0.005 | –
ARAAAEYDCTVA [ATR1 C-terminal 12 aa] | 0.702 ± 0.013 | 0.7 ± 0.036 | –

Sequence | protein stability index [1, 4] | protein stability index ([1]; genetic background: wild type) | further results
ARAAEERMKKKY [VMS1 C-terminal 12 aa] | 0.671 ± 0.023 | 0.663 ± 0.038 | –
AREAVVRAGFDS [YIH1 C-terminal 12 aa] | 0.729 ± 0.01 | 0.745 ± 0.071 | –
ASGEYESDGSDD [RRN3 C-terminal 12 aa] | 0.677 ± 0.026 | 0.709 ± 0.063 | –
ASNGSIFQFSSP [REC104 C-terminal 12 aa] | 0.692 ± 0.023 | 0.718 ± 0.01 | –
ASSSDRPTVAAT [RRT5 C-terminal 12 aa] | 0.6995 ± 0.0066 | 0.681 ± 0.021 | –
ATICSVAFVKQN [EFM4 C-terminal 12 aa] | 0.6241 ± 0.0034 | 0.224 ± 0.011 | –
ATPPYQVFKQQL [FMN1 C-terminal 12 aa] | 0.698 ± 0.071 | 0.668 ± 0.028 | –
ATRRHLAHAPKL [DPI8 C-terminal 12 aa] | 0.799 ± 0.016 | 0.782 ± 0.064 | –
AVETLKKGGFLP [YDL177C C-terminal 12 aa] | 0.7 ± 0.013 | 0.685 ± 0.0071 | –
AVFYIFETLSAL [ORT1 C-terminal 12 aa] | 0.653 ± 0.015 | 0.654 ± 0.0084 | –
AVGIQSSESLLM [YMR175W-A C-terminal 12 aa] | 0.688 ± 0.012 | 0.715 ± 0.031 | –
AVKYLYRQIVRN [EFM2 C-terminal 12 aa] | 0.6832 ± 0.0033 | 0.6213 ± 0.0041 | –
AVNGSDGQHCQI [AVT2 C-terminal 12 aa] | 0.687 ± 0.023 | 0.6543 ± 0.0021 | –
AYQITKRGIETA [RAD57 C-terminal 12 aa] | 0.675 ± 0.061 | 0.6951 ± 0.004 | –
CAVDAIFYWLLM [GMC1 C-terminal 12 aa] | 0.652 ± 0.026 | 0.486 ± 0.026 | –
CAVGGPEKLKFY [BUD3 C-terminal 12 aa] | 0.726 ± 0.018 | 0.758 ± 0.018 | –
CCGSVLLWCLVV [YLR437C-A C-terminal 12 aa] | 0.4309 ± 0.0019 | 0.27 ± 0.0046 | –
CDLVKNSNGLST [YOR200W C-terminal 12 aa] | 0.68 ± 0.01 | 0.685 ± 0.039 | –
CENANYRGAEVP [YIL175W C-terminal 12 aa] | 0.692 ± 0.017 | 0.689 ± 0.015 | –
CFSCFHLSTHTN [YDR157W C-terminal 12 aa] | 0.725 ± 0.018 | 0.6252 ± 0.005 | –
CFWRMICSEPKL [YAR064W C-terminal 12 aa] | 0.736 ± 0.0093 | 0.623 ± 0.052 | –
CGGRPQYGVMFA [YDR249C C-terminal 12 aa] | 0.6887 ± 0.0013 | 0.702 ± 0.023 | –
CINCSRFIHNIN [YMR230W-A C-terminal 12 aa] | 0.70103 ± 0.00057 | 0.304 ± 0.013 | –
CNLFSERKPVNH [YGL188C-A C-terminal 12 aa] | 0.6966 ± 0.0021 | 0.691 ± 0.011 | –
CSGIPSGSGASC [PGU1 C-terminal 12 aa] | 0.691 ± 0.011 | 0.673 ± 0.076 | –
CWMLWLQDRPVC [YBL112C C-terminal 12 aa] | 0.627 ± 0.017 | 0.625 ± 0.02 | –

Sequence | protein stability index [1, 4] | protein stability index ([1]; genetic background: wild type) | further results
CYQDYNHDHRSH [OSW2 C-terminal 12 aa] | 0.7147 ± 0.0055 | 0.6835 ± 0.0018 | –
DAKNANEKNKTY [PIS1 C-terminal 12 aa] | 0.687 ± 0.035 | 0.42 ± 0.033 | –
DATLYLGRFLPH [PEF1 C-terminal 12 aa] | 0.70773 ± 2.5e-05 | 0.667 ± 0.01 | –
DDCLIELPNGNI [RRN9 C-terminal 12 aa] | 0.6888 ± 0.0021 | 0.703 ± 0.041 | –
DDGIATYNNTQG [KNS1 C-terminal 12 aa] | 0.693 ± 0.03 | 0.72 ± 0.027 | –
DDILSHGFEPLA [HTC1 C-terminal 12 aa] | 0.7177 ± 0.0033 | 0.706 ± 0.027 | –
DDKFRRSYDVKK [ERG13 C-terminal 12 aa] | 0.731 ± 0.026 | 0.753 ± 0.12 | –
DDTVQFMRRALE [EAF5 C-terminal 12 aa] | 0.665 ± 0.045 | 0.719 ± 0.044 | –
DEFWTDLFMNDI [WAR1 C-terminal 12 aa] | 0.77 ± 0.0079 | 0.757 ± 0.036 | –
DEQKHNENENSR [RPO21 C-terminal 12 aa] | 0.693 ± 0.022 | 0.708 ± 0.021 | –
DESVDMNVGISY [YCL046W C-terminal 12 aa] | 0.721 ± 0.0092 | 0.718 ± 0.035 | –
DETIKLKDKKIK [MRPL6 C-terminal 12 aa] | 0.714 ± 0.012 | 0.655 ± 0.028 | –
DFFREVKYGKKQ [ODC1 C-terminal 12 aa] | 0.7097 ± 0.0027 | 0.72329 ± 0.00028 | –
DFFYFFQGPFVL [YOR072W-B C-terminal 12 aa] | 0.721 ± 0.013 | 0.731 ± 0.044 | –
DGGWGNRGRSNY [DBP2 C-terminal 12 aa] | 0.701 ± 0.01 | 0.667 ± 0.05 | –
DGKIKIWKISRN [GID7 C-terminal 12 aa] | 0.701 ± 0.021 | 0.711 ± 0.086 | –
DGLLKNVWSYSR [RPS21A C-terminal 12 aa] | 0.7161 ± 0.0069 | 0.7137 ± 0.0025 | –
DGPKFTFKRRKG [XRS2 C-terminal 12 aa] | 0.713 ± 0.027 | 0.778 ± 0.041 | –
DGWIPTRTDDVK [TAD1 C-terminal 12 aa] | 0.703 ± 0.008 | 0.707 ± 0.094 | –
YVDSGLTLIHLA | – | – | protein stability index [2]: 0.297 ± 0.021; protein stability index [3, 5]: 0.606 ± 0.0079; protein stability index [3, 6]: 0.723 ± 0.036; protein stability index [3, 7]: 0.662 ± 0.018; protein stability index [3, 8]: 0.72 ± 0.013; protein stability index [3, 9]: 0.17091 ± 8.6e-05; protein stability index [3, 10]: 0.181 ± 0.023; protein stability index [3, 11]: 0.334 ± 0.011
YVQTKKTRYVLV | – | – | protein stability index [2]: 0.454 ± 0.055; protein stability index [3, 5]: 0.483 ± 0.027; protein stability index [3, 6]: 0.506 ± 0.027; protein stability index [3, 7]: 0.383 ± 0.025; protein stability index [3, 8]: 0.543 ± 0.011; protein stability index [3, 9]: 0.32 ± 0.0047; protein stability index [3, 10]: 0.343 ± 0.018; protein stability index [3, 11]: 0.5038 ± 0.0023
YVSIWSPILWLA | – | – | protein stability index [2]: 0.117 ± 0.024; protein stability index [3, 5]: 0.1694 ± 0.0014; protein stability index [3, 6]: 0.262 ± 0.012; protein stability index [3, 7]: 0.293 ± 0.028; protein stability index [3, 8]: 0.453 ± 0.0083; protein stability index [3, 9]: 0.0697 ± 0.007; protein stability index [3, 10]: 0.0628 ± 0.017; protein stability index [3, 11]: 0.0657 ± 0.016
YYFCMYFKVTLC | – | – | protein stability index [2]: 0.0781 ± 0.03; protein stability index [3, 5]: 0.0445 ± 0.006; protein stability index [3, 6]: 0.15 ± 0.064; protein stability index [3, 7]: 0.15 ± 0.028; protein stability index [3, 8]: 0.285 ± 0.0044; protein stability index [3, 9]: 0.0456 ± 0.019; protein stability index [3, 10]: 0.043 ± 0.0087; protein stability index [3, 11]: 0.0707 ± 0.042
YYFFLTFLCYVF | – | – | protein stability index [2]: 0.207 ± 0.018; protein stability index [3, 5]: 0.153 ± 0.024; protein stability index [3, 6]: 0.216 ± 0.039; protein stability index [3, 7]: 0.154 ± 0.023; protein stability index [3, 8]: 0.255 ± 0.01; protein stability index [3, 9]: 0.148 ± 0.019; protein stability index [3, 10]: 0.112 ± 0.027; protein stability index [3, 11]: 0.221 ± 0.011
